Data reported in patent publication US20170204182A1.

T1: CD81 (UniProt P60033)
T1 sequence (looked up): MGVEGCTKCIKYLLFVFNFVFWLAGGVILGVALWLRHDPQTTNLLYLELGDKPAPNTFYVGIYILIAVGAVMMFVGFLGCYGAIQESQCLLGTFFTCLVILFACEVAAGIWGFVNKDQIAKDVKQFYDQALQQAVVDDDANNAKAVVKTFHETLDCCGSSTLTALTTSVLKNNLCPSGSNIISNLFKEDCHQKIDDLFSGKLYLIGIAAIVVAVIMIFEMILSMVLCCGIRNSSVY

B1: CD81K13 HC 04-hVH_1_69 / LC 05-hVK_1_39 (antibody, V domains shown)
VH: EVQLVESGGGLVQPGRSLRLSCTASGFNFKDSYLHWVRQAPGQGLEWMGRIDTGNGNVKFDPKFQGRVTITADESTSTAYMELSSLRSEDTAVYYCVPYGYGFHSWGQGTLVTVSS
VL: DIQMTQSPSSLSASVGDRVTITCRASENIYRTLAWYQQKPGKAPKLLIYAATTLASGVPSRFSGSGSGTDFTLTISSLQPEDFATYYCQHFWGTPWTFGQGTKVEIK
B2: CD81K13 HC 04-hVH_1_69 / LC 07-hVK_1_27 (antibody, V domains shown)
VH: EVQLVESGGGLVQPGRSLRLSCTASGFNFKDSYLHWVRQAPGQGLEWMGRIDTGNGNVKFDPKFQGRVTITADESTSTAYMELSSLRSEDTAVYYCVPYGYGFHSWGQGTLVTVSS
VL: DIQMTQSPSSLSASVGDRVTITCRASENIYRTLAWYQQKPGKVPKLLIYAATTLASGVPSRFSGSGSGTDFTLTISSLQPEDVGTYYCQKFWGTPWTFGQGTKVEIK
B3: CD81K13 HC 04-hVH_1_69 / LC 5b-hVK_1_39-GA (antibody, V domains shown)
VH: EVQLVESGGGLVQPGRSLRLSCTASGFNFKDSYLHWVRQAPGQGLEWMGRIDTGNGNVKFDPKFQGRVTITADESTSTAYMELSSLRSEDTAVYYCVPYGYGFHSWGQGTLVTVSS
VL: DIQMTQSPSSLSASVGDRVTITCRASENIYRTLAWYQQKPGKAPKLLIYGATTLADGVPSRFSGSGSGTDFTLTISSLQPEDFATYYCQHFWGTPWTFGQGTKVEIK
B4: CD81K13 HC 04-hVH_1_69 / LC 06-hVK_1_39 (antibody, V domains shown)
VH: EVQLVESGGGLVQPGRSLRLSCTASGFNFKDSYLHWVRQAPGQGLEWMGRIDTGNGNVKFDPKFQGRVTITADESTSTAYMELSSLRSEDTAVYYCVPYGYGFHSWGQGTLVTVSS
VL: DIQMTQSPSSLSASVGDRVTITCRASENIYRTLAWYQQKPGKAPKLLIYAATTLASGVPSRFSGSGSGTDFTLTISSLQPEDFGTYYCQHFWGTPWTFGQGTKVEIK
B5: CD81K13 HC 04-hVH_1_69 / LC 5b-hVK_1_39 (antibody, V domains shown)
VH: EVQLVESGGGLVQPGRSLRLSCTASGFNFKDSYLHWVRQAPGQGLEWMGRIDTGNGNVKFDPKFQGRVTITADESTSTAYMELSSLRSEDTAVYYCVPYGYGFHSWGQGTLVTVSS
VL: DIQMTQSPSSLSASVGDRVTITCRASENIYRTLAWYQQKPGKAPKLLIYGATTLADGVPSRFSGSGSGTDFTLTISSLQPEDFATYYCQHFWGTPWTFGQGTKVEIK
B6: CD81K04 HC GG-05-hVH_1_18 / LC JA_GG-10-hVK_4_1 (antibody, V domains shown)
VH: QVQLVQSGAEVKKPGASVKVSCKASGYTFSSSWMNWVRQAPGQGLEWMGRIYSGDGDAIYAQKLQGRVTMTTDTSTSTAYMELRSLRSDDTAVYYCAREGKTGDLLLRSWGQGTLVTVSS
VL: DIVMTQSPDSLAVSLGERATINCRASKSVSTSIYSYMHWYQQKPGQPPKLLIKYASYLESGVPDRFSGSGSGTDFTLTISSLQAEDVAVYYCEHSREFPFTFGQGTKLEIK
B7: CD81K04 HC JA_GG-14-hVH_1_69 / LC GG-04-hVK_4_1 (antibody, V domains shown)
VH: QVQLVQSGAEVKKPGSSVKVSCKASGYTFSSSWMNWVRQAPGQGLEWMGRIYSGDGDAIYNGKFKGKATITADESTSTAYMELSSLRSEDTAVYYCAREGKTGDLLLRSWGQGTLVTVSS
VL: DIVMTQSPDSLAVSLGERATINCKSSKSVSTSIYSYLAWYQQKPGQPPKLLIYYASTRESGVPDRFSGSGSGTDFTLTISSLQAEDVAVYYCQHSREFPYTFGQGTKLEIK
B8: CD81K04 HC JA_GG-14-hVH_1_69 / LC JA_GG-07-hVK_7_3 (antibody, V domains shown)
VH: QVQLVQSGAEVKKPGSSVKVSCKASGYTFSSSWMNWVRQAPGQGLEWMGRIYSGDGDAIYNGKFKGKATITADESTSTAYMELSSLRSEDTAVYYCAREGKTGDLLLRSWGQGTLVTVSS
VL: DIVLTQSPASLAVSPGQRATITCRASKSVSTSIYSYMHWYQQKPGQPPKLLIKYASNKDTGVPARFSGSGSGTDFTLTINPVEANDAANYYCLHSREFPYTFGQGTKLEIK

Each binder was assayed against T1, CD81 (assay: cell ELISA).

Point of comparison: B1, ELISA absorbance 0.776. Against it:
- B2 — lower, 0.085
- B3 — lower, 0.403
- B4 — lower, 0.386
- B5 — lower, 0.428
- B6 — higher, 0.841
- B7 — lower, 0.107
- B8 — lower, 0.107
